# Assay results taken from IntAct's records for PubMed 20638386.
# B1: Tubulin-folding cofactor A (Arabidopsis thaliana (Mouse-ear cress)), O04350 (parent)
# chain: MATIRNLKIKTSTCKRIVKELHSYEKEVEREAAKTADMKDKGADPYDLKQQENVLGESRMMIPDCHKRLESALADLKSTLAELEETDEKEGPEIEDAKKTVADVEKQFPTEDA
# Variants of: B1
# Conditions: with tbb9_arath TUBB9, P29517
# Sequence of tbb9_arath TUBB9, P29517 (P29517 whole entry): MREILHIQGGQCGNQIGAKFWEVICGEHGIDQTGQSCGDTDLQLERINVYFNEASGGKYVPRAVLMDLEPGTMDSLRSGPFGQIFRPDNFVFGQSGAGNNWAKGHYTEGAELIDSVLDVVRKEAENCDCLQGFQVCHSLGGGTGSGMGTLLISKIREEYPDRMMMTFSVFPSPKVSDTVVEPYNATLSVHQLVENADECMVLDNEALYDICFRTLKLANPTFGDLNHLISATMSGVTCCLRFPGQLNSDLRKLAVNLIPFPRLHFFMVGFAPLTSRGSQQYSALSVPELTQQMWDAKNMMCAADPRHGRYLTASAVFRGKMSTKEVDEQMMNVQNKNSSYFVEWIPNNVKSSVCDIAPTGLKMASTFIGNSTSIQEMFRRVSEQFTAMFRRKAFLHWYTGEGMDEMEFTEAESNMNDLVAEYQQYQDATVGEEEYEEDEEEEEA
row,effect of a mutation on the interaction,Variant
1,disrupting interaction,MATIRNLKIKTSTCKRIVKELHSAEKEVEREAAKTADMKDKGADPYDLKQQENVLGESRMMIPDCHKRLESALADLKSTLAELEETDEKEGPEIEDAKKTVADVEKQFPTEDA [Y24A]

# Variants of: B1
# Conditions: with tbb9_arath TUBB9, P29517
# Remark: another data set of the same source
row,effect of a mutation on the interaction,Variant
1,disrupting interaction,MATIRNLKIKTSTCKRIVKELHSYEKEVEREAAKTADMKDKGADPYDLKQQENVLGASRMMIPDCHKRLESALADLKSTLAELEETDEKEGPEIEDAKKTVADVEKQFPTEDA [E57A]

# Variants of: B1
# Conditions: with tbb9_arath TUBB9, P29517
# Remark: another data set of the same source
row,effect of a mutation on the interaction,Variant
1,disrupting interaction,MATIRNLKIKTSTCKRIVKALHSYEKEVEREAAKTADMKDKGADPYDLKQQENVLGESRMMIPDCHKRLESALADLKSTLAELEETDEKEGPEIEDAKKTVADVEKQFPTEDA [E20A]
